Experimental data from patent US20250388936A1, “METHODS AND CELLS FOR THE PRODUCTION OF FLUORINATED COMPOUNDS” (priority 2022, published 2025).

B1: SalL^Stro: chlorinase from Salinispora tropica CNB-440, accession 2Q6L_A (protein, UniProt A4X3Q0 1-283, looked up)
Adenosyl-chloride synthase: MQHNLIAFLSDVGSADEAHALCKGVMYGVAPAATIVDITHDVAPFDVREGALFLADVPHSFPAHTVICAYVYPETGTATHTIAVRNEKGQLLVGPNNGLLSFALDASPAVECHEVLSPDVMNQPVTPTWYGKDIVAACAAHLAAGTDLAAVGPRIDPKQIVRLPYASASEVEGGIRGEVVRIDRAFGNVWTNIPTHLIGSMLQDGERLEVKIEALSDTVLELPFCKTFGEVDEGQPLLYLNSRGRLALGLNQSNFIEKWPVVPGDSITVSPRVPDSNLGPVLG
B2: FIA^MA37: fluorinase of Streptomyces sp. MA37, SEQ ID NO: 30, accession CDH39444.1 (protein, listed as Streptomyces sp.)
chain: MAANGSQRPIIAFMSDLGTTDDSVAQCKGLMHSICPGVTVVDVCHSMTPWDVEEGARYIVDLPRFFPEGTVFATTTYPATGTTTRSVAVRIRQAAKGGARGQWAGSGDGFERADGSYIYIAPNNGLLTTVLEEHGYIEAYEVTSTKVIPANPEPTFYSREMVAIPSAHLAAGFPLAEVGRRLDDSEIVRFHRPAVEISGEALSGVVTAIDHPFGNIWTNIHRTDLEKAGIGQGKHLKIILDDVLPFEAPLTPTFADAGAIGNIAFYLNSRGYLSLARNAASLAYPYNLKAGLKVRVEAR
modifications: Streptomyces sp. MA37
B3: FIA^PtaU1: fluorinase of Methanosaeta sp. PtaU1.Bin055, SEQ ID NO: 1, accession OPY51785.1 (protein, listed as Methanosaeta sp.)
chain: MLQNTKNEYKPRDGGGHRPIIGFMSDLGTEDDSVGICKGVMLGLCPDAVIVDISHSMTPWDIDQGSRLIVDLPKFFPNWTTFATTSYRETGTSARSVAIKLPSGHVYVAPNNGLLTRVIEDHGYVEAYEVTTVGAIPAEPEPTWFSRDMVAYPAAAIAAGFPLENVGRPLNDSEIVRADLPRYTQAEDGIIQGIVTTIDRPFGNIWTNIPRRIIENELRIAYGTNIRVVLDNLLVLEVPFMRTFGDVGLKKPMCYINSRGYFSLAYYGGNLADPYNIRRGMPVKIESITR
modifications: Methanosaeta sp. PtaU1.Bin055
B4: DeoD: PNP from E. coli, SEQ ID NO: 15 (protein, listed as Escherichia coli)
chain: MATPHINAEMGDFADVVLMPGDPLRAKYIAETFLEDAREVNNVRGMLGFTGTYKGRKISVMGHGMGIPSCSIYTKELITDFGVKKIIRVGSCGAVLPHVKLRDVVIGMGACTDSKVNRIRFKDHDFAAIADFDMVRNAVDAAKALGIDARVGNLFSADLFYSPDGEMFDVMEKYGILGVEMEAAGIYGVAAEFGAKALTICTVSDHIRTHEQTTAAERQTTFNDMIKIALESVLLGDKE

Tests used:
[1] = Eustaquio et al., 2008; cited from earlier work
[2] = Steady-state fluorination kinetics of purified fluorinases (5′-FDA by HPLC); type: biochemical; conditions: 50 mM HEPES, pH 7.8, 75 mM KF, varying SAM, 37° C., triplicate
Procedure: (§1) 96-well activity assays were carried out in 150 μL reactions containing 50 mM HEPES pH 7.8, 75 mM KF, ˜1 μM fluorinase (considering the theoretical molecular mass), and 10, 25, 50, 100, 250, or 500 μM SAM (New England Biolabs). 96-well PCR plates were sealed and incubated for 1 h at 37° C., 5 min at 95° C., and cooled to 10° C. in a thermocycler (Bio-Rad). The plates were then centrifuged for 30 min at 2,500×g and 120 μL of supernatants were transferred to round-bottom 96-well plates (Thermo Scientific), which were sealed with a silicone lid for HPLC analysis. Transhalogenation reactions were carried out in the same way, but using increasing concentrations of 5′-CIDA (5′-chloro-5′-deoxyadenosine) in the presence of 1 mM L-Met.
Steady-state kinetics were performed in the same conditions with slight variations. Triplicate reactions (600 μL final volume) were prepared in 1.5-mL tubes and incubated for 5 min at 37° C. before addition of SAM (1.5625-800 μM), after which 90 μL aliquots were removed at different time-points (2, 5, 10, 15, 20 and 30 minutes), boiled for 5 min at 95° C., and placed on ice. Samples were centrifuged at maximum speed for 10 min at 4° C. before being transferred to 96-well plates for 5′-FDA quantitation by HPLC analysis. Product formation rates for the different substrate concentrations were calculated by least squares linear regression with at least three time-points and fitted to the Michaelis-Menten equation using the Origin software (OriginLab Corporation).
(§2) 5′-FDA was quantified following absorbance at 230 nm using a Zorbax C18 column (3.5 μm 4.6×100 mm, Agilent) connected to a HPLC system (Dionex Ultimate 3000, ThermoFisher) with the following gradient (1 mL/min flow rate): 5-12% solvent B in 1.5 min, 12% solvent B for 1 min, 12-30% solvent B in 2 min, 30-70% B in 1.5 min (solvent A: 0.05% acetic acid in water; solvent B: acetonitrile). A six-point calibration curve (R2>0.99) was prepared with 0.5-50 μM 5′-FDA, which was chemically synthesized as previously described (Calero et al., 2020).

[3] = type: cell-based, Pseudomonas putida KT2440; conditions: induction with 15 mM NaF, 20 h, 30° C., LC-MS
[4] = 96-well end-point (1 h) fluorinase activity assay; type: biochemical; conditions: purified enzymes, increasing SAM concentrations, 5′-FDA by HPLC
Procedure: as §1, §2

[5] = End-point (1 h) transhalogenation assay; type: biochemical; conditions: 5′-FDA production from 5′-CIDA, 1 mM L-Met, 75 mM KF, 37° C.
Procedure: as §1, §2

[6] = Chlorination reaction, KF replaced by KCl; type: biochemical
From the text: Since FlA^PtaU1 was predicted to be a chlorinase, we evaluated whether it was also active towards SN2-dependent addition of Cl^− onto SAM. […] Previous studies have shown that FlA^Scat can also catalyze the chlorination reaction (Deng et al., 2006). However, this feature requires the simultaneous removal of L-Met or 5′-CIDA, the reaction products, since the reverse dehalogenation reaction is favored. We could observe transhalogenation on 5′-CIDA (i.e. 5′-FDA production in the presence of L-Met and F^−, steps III and I in FIG. 20, respectively; see FIG. 29). Again, FlA^PtaU1 catalytically outperformed all other fluorinases, with a 3-fold higher Vmax value. Although we cannot rule out that FlA^PtaU1 could execute de novo chlorination, it is clear that the 23-residue loop reportedly found in «conventional» fluorinases is not essential for the activity towards F^−.

[7] = Coupled enzymatic assay, conversion of 5′-FDA into FAld; type: biochemical; conditions: with isomerase^S. cattleya and aldolase^S. coelicolor
Procedure: Coupled isomerase and aldolase activity was monitored by following the consumption of DHAP, through NADH reduction at 340 nm (ε=6220 M^−1 cm^−1) via the activity of a Glycerol-3-Phosphate Dehydrogenase (GPDH, Sigma Aldrich). 5′-FDRP was produced by incubating chemically synthetized 5′-FDA (Calero et al. 2020) at 7.43 mM with 0.5 U Nucleoside Phosphorylase (PNP1, Sigma Aldrich) in 10 mM Tris buffer, for 16 h at 30° C. The assay was carried in 200 μl total volume at 30° C. over a time course of 3 hours. Reaction conditions were 50 mM Tris-HCl Buffer pH7.5, 200 μM NADH, 200 μM 5′-FDRP, 1 U GPDH and 10 μg purified of each enzyme. The reduction of NADH was followed at absorbance 340 nm in a Microtiter Plate reader (BioTek, Elx808).
We used this enzymatic assay with cell-free extracts of cultures of P. putida KT2440::FRS-T7RNAP expressing an isomerase and an aldolase from S. cattleya (isoSc, isomerase^S. cattleya) and S. coelicolor (aldSc, aldolase^S. coelicolor), respectively, that have been previously shown that are able to use fluorinated intermediates (Deng et al., 2008), as well as both an isomerase (isoBt, isomerase^B. thuringiensis) and an aldolase (aldBt) from B. thuringiensis that have been previously described to perform the same reaction with the non-fluorinated metabolites (Beaudoin 2018). […]

Row | Molecule | Km [2] [µM] | kcat [2] [s⁻¹] | Production of 5′-FDA in vivo [3] | also measured
1 | B1 | – | – | – | activity on F^− [1]: inactive on F^−
2 | B2 | 4.42 ± 0.58 | 0.00267 ± 0.00017 | could be detected | –
3 | B3 | 6.99 ± 1.06 | 0.00683 ± 0.00017 | could be detected | 5′-FDA synthase activity [4]: one of the top performers; Vmax, fold higher than all other fluorinases [5]: 3 fold; 5′-CIDA accumulation [6]: no 5′-CIDA accumulation could be detected; intracellular 5′-FDA, fold higher with respect to the other three fluorinase genes [3]: 6- to 12 fold
4 | B4 | – | – | – | conversion of 5′-FDA into FAld [7]: conversion was higher
